{"source": "patent US20240327503A1", "about": "(University of Texas, published 2024)", "binders": {"B1": {"name": "A7V3 (antibody, V domains shown)", "VH": "not shown", "VL": "QSVVTQPPSVSAAPGQKVTISCSGSSSNIGNNYVSWYQQLPGTAPKLLIYDNNKRPSGIPDRFSGSKSGTSATLGITGLQTGDEADYYCGTWDSSLSAVVFGGGTKLTVL"}}, "molecular_target": "spike protein of SARS-COV-2 WA1 live virus (SARS-CoV-2, UniProt P0DTC2 14-1273)", "test": "cell-based or functional assay", "data": [{"binder": "B1", "values": [{"measurement": "IC50, live virus neutralization of SARS-CoV-2 WA1", "result": 0.95, "unit": "nM"}]}]}
